Reference: PMC3582033 (Cell, 2011)

Test system: HP1γ binding to H3 peptide containing K9me3 as the sole modification
Assay: TRIM33 competition with HP1γ for H3 peptide, K9me3 only
Conditions: 3-fold molar excess of TRIM33

B1: TRIM33: Flag-tagged TRIM33 protein (protein)
chain: MAENKGGGEAESGGGGSGSAPVTAGAAGPTAQEAEPPLAAVLVEEEEEEGGRAGAEGGAAGPDDGGVAAASSSSAPAASVPAASVGSAVPGGAASTPAPAAAPAPAPAPAPAPAPAPAPAPAPGSSSGPPLGPPASLLDTCAVCQQSLQSRREAEPKLLPCLHSFCLRCLPEPERQLSVPIPGGSNGDVQQVGVIRCPVCRQECRQIDLVDNYFVKDTSEAPSSSDEKSEQVCTSCEDNASAVGFCVECGEWLCKTCIEAHQRVKFTKDHLIRKKEDVSESVGTSGQRPVFCPVHKQEQLKLFCETCDRLTCRDCQLLEHKEHRYQFLEEAFQNQKGAIENLLAKLLEKKNYVHFAATQVQNRIKEVNETNKRVEQEIKVAIFTLINEINKKGKSLLQQLENVTKERQMKLLQQQNDITGLSRQVKHVMNFTNWAIASGSSTALLYSKRLITFQLRHILKARCDPVPAANGAIRFHCDPTFWAKNVVNLGNLVIESKPAPGYTPNVVVGQVPPGTNHISKTPGQINLAQLRLQHMQQQVYAQKHQQLQQMRLQQPPAPIPTTTATTQQHPRQAAPQMLQQQPPRLISVQTMQRGNMNCGAFQAHQMRLAQNAARIPGIPRHSAPQYSMMQPHLQRQHSNPGHAGPFPVVSAHNPINPTSPTTATMANANRGPTSPSVTAIELIPSVTNPENLPSLPDIPPIQLEDAGSSSLDNLLSRYISGSHLPPQPTSTMNPSPGPSALSPGSSGLSNSHTPVRPPSTSSTGSRGSCGSSGRTAEKSAHSFKSDQVKVKQEPGTEEEICSFSGAVKQEKTEDGRRSACMLSSPESSLTPPLSTNLHLESELDTLTGLENHVKTEPTDISESCKQSGLSNLVNGKSPIRNLMHRSARIGGDGNSKDDDPNEDWCAVCQNGGDLLCCEKCPKVFHLTCHVPTLLSFPSGDWICTFCRDIGKPEVEYDCDNMQHSKKGKTAQGLSPVDQRKCERLLLYLYCHELSIEFQEPVPVSIPNYYKIIKKPMDLSTVKKKLQKKHSQHYQIPDDFVADVRLIFKNCERFNEMMKVVQVYADTQEINLKGDSEVAKAGKAVALYFEDKLSEIYSDRTFTPLPEFEQDEDDGEVTEDSDEDFIQPRRKRLKSDERPVHIK
competition with HP1γ: ineffective at competing with HP1γ
